The subject of one series is LexA. In words: FRET LexA titration. The conditions noted are these: 75 mM NaCl, absolute S1/2 only in figure, LexA FRET: 10 nM nucleosome, 0-100 uM LexA, 0.5x TE, 10 min, nucleosomes reconstituted by KCl step dialysis (2 M to 10 mM), 10 mM Tris-HCl pH 7.8 …, scale: % decrease of S1/2 vs unmodified nucleosome.
Series [1] concerns Histone octamer with H4K77succ (Xenopus laevis). As to the kind of experiment: FRET salt titration. The conditions noted are these: LexA FRET: 10 nM nucleosome, 0-100 uM LexA, 0.5x TE, 75 mM NaCl, 10 min, nucleosomes reconstituted by KCl step dialysis (2 M to 10 mM), 10 mM Tris-HCl pH 7.8 ….
For series [2], the system named is Histone octamer, H2B T112C or end-label DNA FRET, unmodified H4 (Xenopus laevis). In words: FRET salt titration. The following applies: C1/2 is the NaCl concentration for 50% FRET loss, LexA FRET: 10 nM nucleosome, 0-100 uM LexA, 0.5x TE, 75 mM NaCl, 10 min, nucleosomes reconstituted by KCl step dialysis (2 M to 10 mM), 10 mM Tris-HCl pH 7.8 ….

In the series with LexA, “601 DNA with LexA site, in H4K77succ nucleosome” registered a binding signal of 45.5.

Take MMTV-B: the binding signal (% decrease of C1/2 vs unmodified) in series [1] (NaCl titration) was 9. Moreover, the K half in series [2] was 0.475 M NaCl. For Widom 601, end-labelled, the K half is 0.529 M NaCl in series [1] (C1/2 is the NaCl concentration for 50% FRET loss, 14.8% lower than unmodified) and 0.621 M NaCl in series [2] (not a protein Kd).

The record behind these values is article PMC7515725.
